According to publication PMC8377056 (2021):

Target: Fc(A680)-VH4127 conjugate (human, UniProt P01857 = IgG part, Alexa Fluor 680 (degree of labelling 1.7); H-PEG6-VH4127-NH2 joined enzymatically by microbial transglutaminase to the C-terminus of the Myc-tagged Fc | non-natural amino acid residues (not given); …)
Test: SPR

koff: 0.000236 s⁻¹
B1: His-tagged recombinant mouse LDLR (receptor)
chain: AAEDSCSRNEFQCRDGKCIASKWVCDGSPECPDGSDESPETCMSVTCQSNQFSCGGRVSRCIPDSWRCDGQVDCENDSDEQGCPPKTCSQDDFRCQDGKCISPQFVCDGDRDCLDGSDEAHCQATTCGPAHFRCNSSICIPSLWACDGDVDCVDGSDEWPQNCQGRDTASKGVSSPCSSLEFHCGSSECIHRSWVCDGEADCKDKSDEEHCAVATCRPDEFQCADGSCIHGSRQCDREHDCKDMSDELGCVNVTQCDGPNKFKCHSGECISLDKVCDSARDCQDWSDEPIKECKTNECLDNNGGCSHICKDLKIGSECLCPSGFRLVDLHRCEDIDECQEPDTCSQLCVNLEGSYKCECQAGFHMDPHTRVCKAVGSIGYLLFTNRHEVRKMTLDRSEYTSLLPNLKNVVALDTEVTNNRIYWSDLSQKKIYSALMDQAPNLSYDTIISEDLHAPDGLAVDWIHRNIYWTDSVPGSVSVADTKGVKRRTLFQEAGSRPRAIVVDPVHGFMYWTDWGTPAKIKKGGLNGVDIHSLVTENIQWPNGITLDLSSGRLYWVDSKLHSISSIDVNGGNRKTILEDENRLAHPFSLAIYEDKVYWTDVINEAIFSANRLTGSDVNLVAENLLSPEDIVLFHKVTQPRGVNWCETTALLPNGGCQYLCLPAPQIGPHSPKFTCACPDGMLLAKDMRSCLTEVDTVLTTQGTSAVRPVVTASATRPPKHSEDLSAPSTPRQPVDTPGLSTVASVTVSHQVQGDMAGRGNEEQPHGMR
